Source: patent US20220010021A1 (Sanofi, published 2022)
Where a chain is given by its changes, count along the chain named. Numbers in names are those of the source.

T1: human beta-Klotho (KLB) (human, UniProt Q86Z14 53-997)
T1 construct: Bought soluble protein; also called human KLB; ß-Klotho
T1 sequence (looked up): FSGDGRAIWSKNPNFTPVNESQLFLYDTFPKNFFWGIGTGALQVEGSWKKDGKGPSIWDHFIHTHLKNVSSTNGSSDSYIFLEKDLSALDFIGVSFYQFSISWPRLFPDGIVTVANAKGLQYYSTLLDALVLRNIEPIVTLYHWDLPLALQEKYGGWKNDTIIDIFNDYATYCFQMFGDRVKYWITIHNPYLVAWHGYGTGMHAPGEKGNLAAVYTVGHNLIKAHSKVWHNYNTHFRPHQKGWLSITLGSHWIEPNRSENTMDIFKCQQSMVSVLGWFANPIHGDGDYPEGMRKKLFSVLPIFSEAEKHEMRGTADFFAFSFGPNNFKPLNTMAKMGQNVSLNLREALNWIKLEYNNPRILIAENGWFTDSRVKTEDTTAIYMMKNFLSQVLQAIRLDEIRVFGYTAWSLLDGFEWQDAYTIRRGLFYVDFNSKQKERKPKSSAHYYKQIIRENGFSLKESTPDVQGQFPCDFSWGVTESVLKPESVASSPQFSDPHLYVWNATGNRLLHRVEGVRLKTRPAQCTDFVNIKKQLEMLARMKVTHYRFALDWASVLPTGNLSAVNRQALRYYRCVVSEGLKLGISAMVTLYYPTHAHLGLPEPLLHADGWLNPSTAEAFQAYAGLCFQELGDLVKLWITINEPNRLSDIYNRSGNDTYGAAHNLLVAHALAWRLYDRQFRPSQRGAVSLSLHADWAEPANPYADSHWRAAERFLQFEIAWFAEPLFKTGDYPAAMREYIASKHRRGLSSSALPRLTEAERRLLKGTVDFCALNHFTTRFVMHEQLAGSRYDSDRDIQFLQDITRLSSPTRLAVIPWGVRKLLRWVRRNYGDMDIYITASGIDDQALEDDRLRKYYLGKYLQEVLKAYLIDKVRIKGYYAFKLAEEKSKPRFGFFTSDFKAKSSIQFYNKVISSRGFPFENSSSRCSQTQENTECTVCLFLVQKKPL

B1: 16H7 light chain variant I27H (antibody, V domains shown)
VH: not shown
VL: SYVLTQPPSVSVAPGQTARITCGGNNHGSESVHWYQQKPGQAPVLVVYDDSDRPSGIPERFSGSNSGNTATLTISRVEAGDEADYYCQVWDGNSDHVVFGGGTKLTVLG
notes: copies: 2 + 2
B2: 16H7 light chain variant S29L (antibody, V domains shown)
VH: not shown
VL: B1 VL with H27I, S29L
notes: copies: 2 + 2
B3: 16H7 light chain variant S29R (antibody, V domains shown)
VH: not shown
VL: B1 VL with H27I, S29R
notes: copies: 2 + 2
B4: 16H7 light chain variant I27T (antibody, V domains shown)
VH: not shown
VL: B1 VL with H27T
notes: copies: 2 + 2
B5: 16H7 light chain variant I27N (antibody, V domains shown)
VH: not shown
VL: B1 VL with H27N
notes: copies: 2 + 2
B6: 16H7 light chain variant S29C (antibody, V domains shown)
VH: not shown
VL: B1 VL with H27I, S29C
notes: copies: 2 + 2
B7: 16H7 light chain variant I27P (antibody, human IgG4 S228P, lambda, V domains shown)
VH: not shown
VL: B1 VL with H27P
B8: 16H7 light chain variant S29M (antibody, human IgG4 S228P, lambda, V domains shown)
VH: not shown
VL: B1 VL with H27I, S29M
B9: 16H7 light chain variant S29P (antibody, human IgG4 S228P, lambda, V domains shown)
VH: not shown
VL: B1 VL with H27I, S29P
B10: 16H7 light chain variant S29A (antibody, V domains shown)
VH: not shown
VL: B1 VL with H27I, S29A
notes: copies: 2 + 2
B11: 16H7 light chain variant I27Y (antibody, human IgG4 S228P, lambda, V domains shown)
VH: not shown
VL: B1 VL with H27Y
B12: 16H7 light chain variant S31A (antibody, V domains shown)
VH: not shown
VL: B1 VL with H27I, S31A
notes: copies: 2 + 2
B13: 16H7 light chain variant S29E (antibody, human IgG4 S228P, lambda, V domains shown)
VH: not shown
VL: B1 VL with H27I, S29E
B14: 16H7 light chain variant S31R (antibody, human IgG4 S228P, lambda, V domains shown)
VH: not shown
VL: B1 VL with H27I, S31R
B15: 16H7 light chain variant S31I (antibody, human IgG4 S228P, lambda, V domains shown)
VH: not shown
VL: B1 VL with H27I, S31I
B16: 16H7 light chain variant S29I (antibody, human IgG4 S228P, lambda, V domains shown)
VH: not shown
VL: B1 VL with H27I, S29I
B17: 16H7 light chain variant S31P (antibody, V domains shown)
VH: not shown
VL: B1 VL with H27I, S31P
notes: copies: 2 + 2
B18: 16H7 light chain variant S31G (antibody, human IgG4 S228P, lambda, V domains shown)
VH: not shown
VL: B1 VL with H27I, S31G
B19: 16H7 light chain variant I27W (antibody, human IgG4 S228P, lambda, V domains shown)
VH: not shown
VL: B1 VL with H27W
B20: 16H7 light chain variant S31C (antibody, human IgG4 S228P, lambda, V domains shown)
VH: not shown
VL: B1 VL with H27I, S31C
B21: 16H7 light chain variant S29K (antibody, human IgG4 S228P, lambda, V domains shown)
VH: not shown
VL: B1 VL with H27I, S29K
B22: 16H7 light chain variant S29Q (antibody, human IgG4 S228P, lambda, V domains shown)
VH: not shown
VL: B1 VL with H27I, S29Q
B23: 16H7 light chain variant S31D (antibody, human IgG4 S228P, lambda, V domains shown)
VH: not shown
VL: B1 VL with H27I, S31D
B24: 16H7 light chain variant S29G (antibody, V domains shown)
VH: not shown
VL: B1 VL with H27I, S29G
notes: copies: 2 + 2
B25: 16H7 light chain variant I27V (antibody, V domains shown)
VH: not shown
VL: B1 VL with H27V
notes: copies: 2 + 2
B26: 16H7 light chain variant I27Q (antibody, human IgG4 S228P, lambda, V domains shown)
VH: not shown
VL: B1 VL with H27Q
B27: 16H7 light chain variant I27M (antibody, human IgG4 S228P, lambda, V domains shown)
VH: not shown
VL: B1 VL with H27M
B28: 16H7 light chain variant S31M (antibody, human IgG4 S228P, lambda, V domains shown)
VH: not shown
VL: B1 VL with H27I, S31M
B29: 16H7 light chain variant I27R (antibody, V domains shown)
VH: not shown
VL: B1 VL with H27R
notes: copies: 2 + 2
B30: 16H7 light chain variant S29H (antibody, V domains shown)
VH: not shown
VL: B1 VL with H27I, S29H
notes: copies: 2 + 2
B31: 16H7 light chain variant S29T (antibody, human IgG4 S228P, lambda, V domains shown)
VH: not shown
VL: B1 VL with H27I, S29T
B32: 16H7 light chain variant S29F (antibody, V domains shown)
VH: not shown
VL: B1 VL with H27I, S29F
notes: copies: 2 + 2
B33: 16H7 light chain variant S29V (antibody, human IgG4 S228P, lambda, V domains shown)
VH: not shown
VL: B1 VL with H27I, S29V
B34: 16H7 light chain variant S31E (antibody, V domains shown)
VH: not shown
VL: B1 VL with H27I, S31E
notes: copies: 2 + 2
B35: 16H7 light chain variant S29D (antibody, human IgG4 S228P, lambda, V domains shown)
VH: not shown
VL: B1 VL with H27I, S29D

Each binder was assayed against cell surface receptor composed of FGFR1c and co-receptor beta-Klotho (KLB) (human, UniProt P11362 22-822; Q86Z14 1-1044) (assay: cell-based or functional assay).
cell surface receptor composed of FGFR1c and co-receptor beta-Klotho (KLB), sequence (P11362 22-822, chain 1 of 2): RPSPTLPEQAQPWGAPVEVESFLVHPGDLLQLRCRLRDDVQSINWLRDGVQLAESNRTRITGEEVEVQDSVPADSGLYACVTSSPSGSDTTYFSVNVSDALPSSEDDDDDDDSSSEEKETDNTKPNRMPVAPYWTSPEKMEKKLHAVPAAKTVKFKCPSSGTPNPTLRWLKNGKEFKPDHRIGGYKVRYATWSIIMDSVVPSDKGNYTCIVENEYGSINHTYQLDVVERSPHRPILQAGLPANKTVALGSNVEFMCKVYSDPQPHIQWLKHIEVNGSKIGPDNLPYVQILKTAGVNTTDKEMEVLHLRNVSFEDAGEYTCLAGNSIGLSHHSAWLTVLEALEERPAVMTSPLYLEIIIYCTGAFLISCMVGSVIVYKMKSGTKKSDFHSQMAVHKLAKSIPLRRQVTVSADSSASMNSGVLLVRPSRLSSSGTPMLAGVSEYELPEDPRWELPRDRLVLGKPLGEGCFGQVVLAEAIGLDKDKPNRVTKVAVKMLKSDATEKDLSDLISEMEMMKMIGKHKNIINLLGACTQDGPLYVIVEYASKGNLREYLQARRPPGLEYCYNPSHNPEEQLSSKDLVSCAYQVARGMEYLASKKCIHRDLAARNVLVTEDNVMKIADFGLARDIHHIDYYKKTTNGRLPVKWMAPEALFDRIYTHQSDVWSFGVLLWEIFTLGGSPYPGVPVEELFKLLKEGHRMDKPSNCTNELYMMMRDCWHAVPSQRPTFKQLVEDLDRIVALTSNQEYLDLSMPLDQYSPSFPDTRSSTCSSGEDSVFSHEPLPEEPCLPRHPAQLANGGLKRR
cell surface receptor composed of FGFR1c and co-receptor beta-Klotho (KLB), sequence (Q86Z14 whole entry, chain 2 of 2): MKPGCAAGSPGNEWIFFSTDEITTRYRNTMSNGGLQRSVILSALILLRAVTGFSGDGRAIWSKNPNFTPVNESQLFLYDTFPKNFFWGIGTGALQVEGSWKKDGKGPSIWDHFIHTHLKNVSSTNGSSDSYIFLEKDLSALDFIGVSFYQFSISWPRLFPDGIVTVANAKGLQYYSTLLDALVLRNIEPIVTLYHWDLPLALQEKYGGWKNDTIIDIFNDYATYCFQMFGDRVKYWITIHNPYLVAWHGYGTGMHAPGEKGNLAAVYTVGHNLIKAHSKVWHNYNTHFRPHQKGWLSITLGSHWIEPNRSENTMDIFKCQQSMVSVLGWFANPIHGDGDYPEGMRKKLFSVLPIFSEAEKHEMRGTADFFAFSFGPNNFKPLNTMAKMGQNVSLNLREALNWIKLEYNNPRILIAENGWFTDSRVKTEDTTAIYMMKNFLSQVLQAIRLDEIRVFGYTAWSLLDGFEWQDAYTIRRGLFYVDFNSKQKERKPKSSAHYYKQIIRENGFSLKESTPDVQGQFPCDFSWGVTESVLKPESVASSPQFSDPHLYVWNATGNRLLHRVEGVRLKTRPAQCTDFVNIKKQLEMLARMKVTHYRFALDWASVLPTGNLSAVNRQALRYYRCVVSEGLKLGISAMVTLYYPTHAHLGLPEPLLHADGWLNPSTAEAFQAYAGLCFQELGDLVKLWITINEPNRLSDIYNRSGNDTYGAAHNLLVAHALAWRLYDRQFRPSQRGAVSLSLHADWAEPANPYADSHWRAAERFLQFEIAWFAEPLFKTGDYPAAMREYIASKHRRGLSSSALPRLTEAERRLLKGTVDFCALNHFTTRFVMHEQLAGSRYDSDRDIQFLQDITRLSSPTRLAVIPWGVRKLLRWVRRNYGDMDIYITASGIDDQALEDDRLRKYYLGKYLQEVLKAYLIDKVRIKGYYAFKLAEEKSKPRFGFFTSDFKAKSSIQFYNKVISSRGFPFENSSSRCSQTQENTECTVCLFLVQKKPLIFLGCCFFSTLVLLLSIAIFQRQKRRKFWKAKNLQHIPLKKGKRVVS

B1 and B2 are the same in “Mean E max, Luciferase reporter gene assay” value (shortened to “Mean E max”): 100% for the first, 100% for the second.

First: B3
Second: B4
The “Mean E max” value of the first is higher: 105% for the first, 97% for the second.

Going from B5 to B6, the “Mean E max” value rises from 96% to 108%.

Going from B7 to B8, the “Mean E max” value falls from 107% to 106%.

Going from B9 to B10, the “Mean E max” value falls from 105% to 100%.

Going from B11 to B12, the “Mean E max” value rises from 96% to 100%.

Going from B13 to B14, the “Mean E max” value falls from 114% to 102%.

First: B15
Second: B16
The “Mean E max” value of the first is lower: 93% for the first, 107% for the second.

Compared with B17, B18 is higher in “Mean E max” value: 103% for the first, 109% for the second.

First: B19
Second: B20
The “Mean E max” value of the first is higher: 104% for the first, 100% for the second.

Compared with B21, B22 is higher in “Mean E max” value: 96% for the first, 102% for the second.

Going from B23 to B24, the “Mean E max” value falls from 99% to 98%.

First: B25
Second: B26
The “Mean E max” value of the first is higher: 104% for the first, 103% for the second.

B27 and B28 are the same in “Mean E max” value: 97% for the first, 97% for the second.

Compared with B29, B30 is lower in “Mean E max” value: 105% for the first, 100% for the second.

First: B31
Second: B32
The “Mean E max” value of the first is lower: 102% for the first, 116% for the second.

First: B33
Second: B34
The “Mean E max” value of the first is higher: 107% for the first, 98% for the second.

For B35, the “Mean E max” value was 109%.

B1 and B2 are within 1.5-fold of each other in “Mean EC50, Luciferase reporter gene assay” value (“Mean EC50” for short): 0.098 nM for the first, 0.108 nM for the second.

B3 and B4 are within 1.5-fold of each other in “Mean EC50” value: 0.184 nM for the first, 0.152 nM for the second.

B5 and B6 are within 1.5-fold of each other in “Mean EC50” value: 0.162 nM for the first, 0.172 nM for the second.

B7 and B8 are within 1.5-fold of each other in “Mean EC50” value: 0.145 nM for the first, 0.133 nM for the second.

B9 and B10 are within 1.5-fold of each other in “Mean EC50” value: 0.174 nM for the first, 0.153 nM for the second.

B11 and B12 are within 1.5-fold of each other in “Mean EC50” value: 0.116 nM for the first, 0.099 nM for the second.

Compared with B13, B14 is 1.6-fold higher in “Mean EC50” value: 0.102 nM for the first, 0.166 nM for the second.

Compared with B15, B16 is 1.6-fold higher in “Mean EC50” value: 0.089 nM for the first, 0.14 nM for the second.

B17 and B18 are within 1.5-fold of each other in “Mean EC50” value: 0.104 nM for the first, 0.111 nM for the second.

B19 and B20 are within 1.5-fold of each other in “Mean EC50” value: 0.156 nM for the first, 0.128 nM for the second.

B21 and B22 are within 1.5-fold of each other in “Mean EC50” value: 0.146 nM for the first, 0.114 nM for the second.

B23 and B24 are within 1.5-fold of each other in “Mean EC50” value: 0.077 nM for the first, 0.09 nM for the second.

B25 and B26 are within 1.5-fold of each other in “Mean EC50” value: 0.136 nM for the first, 0.144 nM for the second.

Compared with B27, B28 is 1.7-fold higher in “Mean EC50” value: 0.087 nM for the first, 0.151 nM for the second.

B29 and B30 are within 1.5-fold of each other in “Mean EC50” value: 0.131 nM for the first, 0.119 nM for the second.

Compared with B31, B32 is 2-fold higher in “Mean EC50” value: 0.096 nM for the first, 0.19 nM for the second.

B33 and B34 are within 1.5-fold of each other in “Mean EC50” value: 0.109 nM for the first, 0.111 nM for the second.

For B35, the “Mean EC50” value was 0.136 nM.

Each binder was assayed against T1, human beta-Klotho (KLB) (assay: BLI off-rate screen, supernatant;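 also: expression supernatants tested at 25 µg/mL, dissociation followed for 1800 s in D-PBS with 0.1% BSA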).

Compared with B1, B2 is 3-fold lower in koff: 3.3e-05 s⁻¹ for the first, 1.1e-05 s⁻¹ for the second.

Going from B3 to B4, the koff rises from 6.7e-06 s⁻¹ to 3.3e-05 s⁻¹ (4.9-fold).

B5 and B6 are within 1.5-fold of each other in koff: 4.5e-05 s⁻¹ for the first, 5e-05 s⁻¹ for the second.

First: B7
Second: B8
The koff of the first is 6.6-fold lower: 3.5e-06 s⁻¹ for the first, 2.3e-05 s⁻¹ for the second.

Going from B9 to B10, the koff falls from 5.2e-05 s⁻¹ to 1e-05 s⁻¹ (5.2-fold).

B11 and B12 are within 1.5-fold of each other in koff: 4.2e-05 s⁻¹ for the first, 5.8e-05 s⁻¹ for the second.

Going from B13 to B14, the koff rises from 2.3e-05 s⁻¹ to 4.2e-05 s⁻¹ (1.8-fold).

Compared with B15, B16 is 5-fold lower in koff: 0.00015 s⁻¹ for the first, 3e-05 s⁻¹ for the second.

B17 and B18 are within 1.5-fold of each other in koff: 6.6e-05 s⁻¹ for the first, 5.5e-05 s⁻¹ for the second.

Compared with B19, B20 is 2.6-fold higher in koff: 6.5e-05 s⁻¹ for the first, 0.00017 s⁻¹ for the second.

B21 and B22 are within 1.5-fold of each other in koff: 1.5e-05 s⁻¹ for the first, 2.2e-05 s⁻¹ for the second.

Compared with B23, B24 is 5.4-fold lower in koff: 0.00019 s⁻¹ for the first, 3.5e-05 s⁻¹ for the second.

Compared with B25, B26 is 1.8-fold higher in koff: 3.3e-05 s⁻¹ for the first, 6.1e-05 s⁻¹ for the second.

Going from B27 to B28, the koff rises from 6e-05 s⁻¹ to 0.0003 s⁻¹ (5-fold).

Going from B29 to B30, the koff rises from 2.2e-05 s⁻¹ to 4.9e-05 s⁻¹ (2.2-fold).

B31 and B32 are within 1.5-fold of each other in koff: 2.2e-05 s⁻¹ for the first, 1.9e-05 s⁻¹ for the second.

Going from B33 to B34, the koff rises from 1.3e-05 s⁻¹ to 0.00031 s⁻¹ (24-fold).

In the case of B35, the koff is reported as 4.5e-05 s⁻¹.
